Measured values: paper PMC3336217, “^111In-Labeled Cystine-Knot Peptides Based on the Agouti-Related Protein for Targeting Tumor Angiogenesis” (Journal of Biomedicine and Biotechnology, 2012)
Positions of bridges follow the written chain, without caps; N, C: chain ends. Residues, ends and D or L forms follow the SMILES beside them. *: point of attachment. DOTA = O=C(O)CN1CCN(CC(=O)O)CCN(CC(=O)*)CCN(CC(=O)O)CC1

Key:
[1] = test system: nude mice bearing subcutaneous U87MG human glioblastoma xenografts; assay: in vivo; details: female, athymic nu/nu, mouse, iv, 2 h
Description: (§1) All animal studies were carried out in compliance with federal and local institutional rules for animal experimentation. Approximately, 10^7 U87MG cells were suspended in PBS and subcutaneously implanted in the left shoulders of female athymic nu/nu mice. Tumors were allowed to grow to a size of 0.5 cm (2-3 weeks) before imaging experiments were performed. For biodistribution studies, U87MG tumor-bearing mice (n = 3 for each group) were injected with ^111In-DOTA-AgRP-7C (0.259–0.37 MBq, […]) or ^111In-DOTA-AgRP-6E (0.296–0.444 MBq, 8–12 μCi) via the tail vein and sacrificed at different time points (0.5, 2, 24, and 48 h) after injection (p.i.). Tumor and normal tissues of interest were removed and weighed, and their radioactivity was measured with a γ-counter. Radioactivity uptake was expressed as the percent injected dose per gram of tissue (%ID/g). To test the in vivo αvβ3 integrin targeting specificity of the probe, U87MG tumor-bearing mice (n = 3 for each group) were injected via the tail vein with a mixture of ^111In-DOTA-AgRP-7C (0.259–0.37 MBq, 7–10 μCi) and 330 μg of c(RGDyK). The mice were sacrificed at 2 h p.i. and the biodistribution of the radiolabeled peptide was measured as above.
(§2) Quantitative data were expressed as mean ± SD. Means were compared using the Student t-test. A 95% confidence level was chosen to determine the significance between groups, with P values of less than 0.05 indicating significant differences.

in vivo = details: female, athymic nu/nu, mouse, iv, total radioactivity
Description: as §1, §2

in vitro = in vitro ADME; details: mouse, serum
Description: Radiolabeled AgRP* peptides were incubated in 0.01 M PBS (pH 7.4) at 37°C for 24 h and monitored for degradation by HPLC. Stability was also tested by incubating 0.74 MBq (20 μCi) ^111In-DOTA-AgRP-7C or ^111In-DOTA-AgRP-6E in 400 μL of mouse serum at 37°C for 2 h. Afterward, the mixture was re-suspended in 0.5 mL of DMF containing 5 μL of Triton X-100 and centrifuged at 16,000 g for 2 min. The supernatant, which contained >95% of the starting radioactivity, was filtered using a 10 K NanoSep device (Pall Corporation, East Hills, NY, USA). Greater than 99% of the radioactive material passed through this filter. The samples were analyzed by radio-HPLC, and the percentage of intact peptide was determined by quantifying peaks corresponding to the intact peptide and to the degradation products.
Figure 1 Stability analysis of ^111In-DOTA-AgRP-7C (a) and (b), and ^111In-DOTA-AgRP-6E (c) and (d) in PBS and mouse serum. The two radiopeptides were incubated with PBS for 24 h at […], and mouse serum for 2 h at 37°C.

In the case of CC(C)C[C@@H]1NC(=O)[C@@H]2CSSC[C@@H]3NC(=O)[C@H]([C@@H](C)O)NC(=O)[C@H](C)NC(=O)[C@H](C)NC(=O)[C@@H]4CCCN4C(=O)[C@H](CC(=O)O)NC(=O)[C@H](CSSC[C@H](NC(=O)CNC(=O)CN4CCN(CC(=O)O)CCN(CC(=O)O)CCN(CC(=O)O)CC4)C(=O)N[C@@H](C(C)C)C(=O)N[C@@H](CCCNC(=N)N)C(=O)N[C@@H](CC(C)C)C(=O)N[C@@H](Cc4c[nH]cn4)C(=O)N[C@@H](CCC(=O)O)C(=O)N[C@@H](CO)C(=O)N2)NC(=O)[C@H](CSSC[C@@H](C(=O)N[C@@H](CCCNC(=N)N)C(=O)O)NC(=O)[C@H](Cc2ccc(O)cc2)NC(=O)[C@@H]2CSSC[C@H](NC(=O)[C@H](Cc4ccc(O)cc4)NC3=O)C(=O)N[C@@H](Cc3ccc(O)cc3)C(=O)NCC(=O)N[C@@H](CCCNC(=N)N)C(=O)NCC(=O)N[C@@H](CC(=O)O)C(=O)N[C@@H](CC(N)=O)C(=O)N[C@@H](CC(=O)O)C(=O)N[C@@H](CC(C)C)C(=O)N[C@@H](CCCNC(=N)N)C(=O)N2)NC(=O)[C@@H]2CCCN2C(=O)[C@H](C(C)C)NC(=O)[C@H](CCC(N)=O)NC(=O)[C@H](CCC(N)=O)NC(=O)CNC1=O [111In-DOTA-AgRP-7C, metal not drawn] ({DOTA}-GCVRLHESCLGQQVPCCDPAATCYCYGRGDNDLRCYCR-OH; disulfide 2-17, 9-23, 16-37, 25-35), the Intestine uptake [1] is reported as 0.60 ± 0.13 %ID/g, the Liver uptake [1] is reported as 0.43 ± 0.16 %ID/g and the Lung uptake [1] is reported as 0.86 ± 0.20 %ID/g. The Spleen uptake [1] was 0.88 ± 0.21 %ID/g, the Tumor uptake [1] was 2.35 ± 0.36 %ID/g and the Tumor-to-muscle ratio [1] was 39.83 ± 9.16. The tissue uptake at 0.5 h (in vivo; Blood uptake) was 0.68 ± 0.26 %ID/g, the tissue uptake at 2 h (in vivo; Blood uptake) was 0.1 ± 0.02 %ID/g and the tissue uptake at 24 h (in vivo; Blood uptake) was 0.01 %ID/g. For the same compound, the tissue uptake at 48 h (in vivo; Blood uptake) was 0.01 %ID/g, the tissue uptake at 0.5 h (in vivo; Bone uptake) was 1.41 ± 0.36 %ID/g and the tissue uptake at 2 h (in vivo; Bone uptake) was 0.63 ± 0.05 %ID/g. For the same compound, the tissue uptake at 24 h (in vivo; Bone uptake) was 0.39 ± 0.07 %ID/g, the tissue uptake at 48 h (in vivo; Bone uptake) was 0.24 ± 0.05 %ID/g and the tissue uptake at 0.5 h (in vivo; Brain uptake) was 0.04 ± 0.02 %ID/g. It also gave a tissue uptake at 2 h (in vivo; Brain uptake) of 0.02 ± 0.01 %ID/g, a tissue uptake at 24 h (in vivo; Brain uptake) of 0.01 %ID/g and a tissue uptake at 48 h (in vivo; Brain uptake) of 0.01 ± 0.01 %ID/g. For the same compound, the tissue uptake at 0.5 h (in vivo; Heart uptake) was 0.45 ± 0.16 %ID/g, the tissue uptake at 2 h (in vivo; Heart uptake) was 0.12 ± 0.02 %ID/g and the tissue uptake at 24 h (in vivo; Heart uptake) was 0.04 ± 0.01 %ID/g. For the same compound, the tissue uptake at 48 h (in vivo; Heart uptake) was 0.03 %ID/g, the tissue uptake at 0.5 h (in vivo; Intestine uptake) was 2.02 ± 0.71 %ID/g and the tissue uptake at 24 h (in vivo; Intestine uptake) was 0.29 ± 0.02 %ID/g. It also gave a tissue uptake at 48 h (in vivo; Intestine uptake) of 0.22 ± 0.03 %ID/g, a tissue uptake at 0.5 h (in vivo; Kidneys uptake) of 33.9 ± 8.35 %ID/g and a tissue uptake at 2 h (in vivo; Kidneys uptake) of 30.6 ± 4.62 %ID/g. For the same compound, the tissue uptake at 24 h (in vivo; Kidneys uptake) was 19.1 ± 2.17 %ID/g, the tissue uptake at 48 h (in vivo; Kidneys uptake) was 8.47 ± 0.04 %ID/g and the tissue uptake at 0.5 h (in vivo; Liver uptake) was 0.8 ± 0.19 %ID/g. For the same compound, the tissue uptake at 24 h (in vivo; Liver uptake) was 0.24 ± 0.03 %ID/g, the tissue uptake at 48 h (in vivo; Liver uptake) was 0.19 ± 0.03 %ID/g and the tissue uptake at 0.5 h (in vivo; Lung uptake) was 2.11 ± 0.65 %ID/g. The tissue uptake at 24 h (in vivo; Lung uptake) was 0.26 ± 0.09 %ID/g, the tissue uptake at 48 h (in vivo; Lung uptake) was 0.12 ± 0.02 %ID/g and the tissue uptake at 0.5 h (in vivo; Muscle uptake) was 0.3 ± 0.13 %ID/g. For the same compound, the tissue uptake at 2 h (in vivo; Muscle uptake) was 0.06 ± 0.01 %ID/g, the tissue uptake at 24 h (in vivo; Muscle uptake) was 0.04 ± 0.01 %ID/g and the tissue uptake at 48 h (in vivo; Muscle uptake) was 0.02 ± 0.01 %ID/g. For the same compound, the tissue uptake at 0.5 h (in vivo; Pancreas uptake) was 0.42 ± 0.17 %ID/g, the tissue uptake at 2 h (in vivo; Pancreas uptake) was 0.13 ± 0.03 %ID/g and the tissue uptake at 24 h (in vivo; Pancreas uptake) was 0.09 ± 0.01 %ID/g. It also gave a tissue uptake at 48 h (in vivo; Pancreas uptake) of 0.05 ± 0.01 %ID/g, a tissue uptake at 0.5 h (in vivo; Spleen uptake) of 1.7 ± 0.62 %ID/g and a tissue uptake at 24 h (in vivo; Spleen uptake) of 0.58 ± 0.09 %ID/g. For the same compound, the tissue uptake at 48 h (in vivo; Spleen uptake) was 0.46 ± 0.1 %ID/g, the tissue uptake at 0.5 h (in vivo; Stomach uptake) was 2.17 ± 0.49 %ID/g and the tissue uptake at 24 h (in vivo; Stomach uptake) was 0.21 ± 0.01 %ID/g. For the same compound, the tissue uptake at 48 h (in vivo; Stomach uptake) was 0.14 ± 0.02 %ID/g, the tissue uptake at 0.5 h (in vivo; Tumor uptake) was 5.74 ± 1.6 %ID/g and the tissue uptake at 24 h (in vivo; Tumor uptake) was 1.29 ± 0.02 %ID/g. It also gave a tissue uptake at 48 h (in vivo; Tumor uptake) of 0.76 ± 0.17 %ID/g, a tissue to tissue ratio at 0.5 h (in vivo; Tumor-to-blood ratio) of 8.9 ± 3.09 and a tissue to tissue ratio at 2 h (in vivo; Tumor-to-blood ratio) of 25.8 ± 10.5. For the same compound, the tissue to tissue ratio at 24 h (in vivo; Tumor-to-blood ratio) was 128 ± 30.5, the tissue to tissue ratio at 48 h (in vivo; Tumor-to-blood ratio) was 144 ± 36.3 and the tissue to tissue ratio at 0.5 h (in vivo; Tumor-to-muscle ratio) was 20.6 ± 6.4. For the same compound, the tissue to tissue ratio at 24 h (in vivo; Tumor-to-muscle ratio) was 37.7 ± 9.81, the tissue to tissue ratio at 48 h (in vivo; Tumor-to-muscle ratio) was 41.1 ± 8.62 and the remaining at 2 h, 1.85 MBq/mL (in vitro) was greater than 95%.
